The values below come from publication PMC9548408.

The target in assay [1] is human lysosomal α-L-fucosidase (FucA1) (human) (UniProt P04066). As to the kind of experiment: cryo-EM structure; single-particle cryo-EM, 200 kV Glacios, D2 symmetry imposed; unliganded FucA1 at 2 mg/mL, and FucA1 at 1.5 mg/mL with 1 mM deoxyfuconojirimycin in 60 mM phosphate citrate pH 4.5.
Assay [2] has the same target. As to the kind of experiment: SEC-MALS; SEC-MALLS, Superdex S200 10/300, 20 mM HEPES pH 7.4, 200 mM NaCl, room temperature (20 ± 2°C), 100 μL injected at 0.8 mg/mL. (In gel filtration, larger molecules generally elute earlier.)

The stoichiometry N is the number of molecules, sites or subunits per partner or assembly. “human lysosomal α-L-fucosidase (FucA1) (from UniProt P04066 32-466) (enzyme)”: the stoichiometry N in assay [1] and in assay [2] was 4 in each case.
